B1: recombinant human C1r2s2 tetramer (other)
chain 1: EPTMYGEILSPNYPQAYPSEVEKSWDIEVPEGYGIHLYFTHLDIELSENCAYDSVQIISGDTEEGRLCGQRSSNNPHSPIVEEFQVPYNKLQVIFKSDFSNEERFTGFAAYYVATDINECTDFVDVPCSHFCNNFIGGYFCSCPPEYFLHDDMKNCGVNCSGDVFTALIGEIASPNYPKPYPENSRCEYQIRLEKGFQVVVTLRREDFDVEAADSAGNCLDSLVFVAGDRQFGPYCGHGFPGPLNIETKSNALDIIFQTDLTGQKKGWKLRYHGDPMPCPKEDTPNSVWEPAKAKYVFRDVVQITCLDGFEVVEGRVGATSFYSTCQSNGKWSNSKLKCQPVDCGIPESIENGKVEDPESTLFGSVIRYTCEEPYYYMENGGGGEYHCAGNGSWVNEVLGPELPKCVPVCGVPREPFEEKQRIIGGSDADIKNFPWQVFFDNPWAGGALINEYWVLTAAHVVEGNREPTMYVGSTSVQTSRLAKSKMLTPEHVFIHPGWKLLEVPEGRTNFDNDIALVRLKDPVKMGPTVSPICLPGTSSDYNLMDGDLGLISGWGRTEKRDRAVRLKAARLPVAPLRKCKEVKVEKPTADAEAYVFTPNMICAGGEKGMDSCKGDSGGAFAVQDPNDKTKFYAAGLVSWGPQCGTYGLYTRVKNYVDWIMKTMQENSTPRED
chain 2: SIPIPQKLFGEVTSPLFPKPYPNNFETTTVITVPTGYRVKLVFQQFDLEPSEGCFYDYVKISADKKSLGRFCGQLGSPLGNPPGKKEFMSQGNKMLLTFHTDFSNEENGTIMFYKGFLAYYQAVDLDECASRSKLGEEDPQPQCQHLCHNYVGGYFCSCRPGYELQEDRHSCQAECSSELYTEASGYISSLEYPRSYPPDLRCNYSIRVERGLTLHLKFLEPFDIDDHQQVHCPYDQLQIYANGKNIGEFCGKQRPPDLDTSSNAVDLLFFTDESGDSRGWKLRYTTEIIKCPQPKTLDEFTIIQNLQPQYQFRDYFIATCKQGYQLIEGNQVLHSFTAVCQDDGTWHRAMPRCKIKDCGQPRNLPNGDFRYTTTMGVNTYKARIQYYCHEPYYKMQTRAGSRESEQGVYTCTAQGIWKNEQKGEKIPRCLPVCGKPVNPVEQRQQIIGGQKAKMGNFPWQVFTNIHGRGGGALLGDRWILTAAHTLYPKEHEAQSNASLDVFLGHTNVEELMKLGNHPIRRVSVHPDYRQDESYNFEGDIALLELENSVTLGPNLLPICLPDNDTFYDLGLMGYVSGFGVMEEKIAHDLRFVRLPVANPQACENWLRGKNRMDVFSQNMFCAGHPSLKQDACQGDAGGVFAVRDPNTDRWVATGIVSWGIGCSRGYGFYTKVLNYVDWIKKEMEEED
notes: C1s and C1r co-expressed in HEK293 and purified from the supernatant as tetramer; also called hC1r2s2

Key:
[1] = target: T1, native human C1q (CompTech) (human, UniProt P02745 23-245; P02746 28-253; P02747 29-245); assay: SPR (BIACORE T200, 37 C, pH 7.4), hC1r2s2 captured by immobilised IPN009VH2Vk3-SG1148, hC1q 100 nM then buffer, response normalised to C1r2s2 = 100 RU
T1 construct: the three subunits are from general knowledge; also called hC1q
T1 sequence (P02745 23-245 limits assumed, chain 1 of 3): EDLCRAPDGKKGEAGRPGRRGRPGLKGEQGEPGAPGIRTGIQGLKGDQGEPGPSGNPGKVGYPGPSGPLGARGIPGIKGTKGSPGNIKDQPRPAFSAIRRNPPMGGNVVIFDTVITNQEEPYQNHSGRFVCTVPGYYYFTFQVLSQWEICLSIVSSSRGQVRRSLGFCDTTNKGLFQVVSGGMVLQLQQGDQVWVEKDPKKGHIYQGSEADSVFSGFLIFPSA
T1 sequence (P02746 28-253 limits assumed, chain 2 of 3): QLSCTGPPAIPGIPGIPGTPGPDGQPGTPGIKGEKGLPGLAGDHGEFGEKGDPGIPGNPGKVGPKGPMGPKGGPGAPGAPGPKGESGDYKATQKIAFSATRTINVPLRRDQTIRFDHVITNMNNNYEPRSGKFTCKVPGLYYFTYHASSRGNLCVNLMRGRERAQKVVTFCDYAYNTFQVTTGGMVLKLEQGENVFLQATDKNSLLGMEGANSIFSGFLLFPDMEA
T1 sequence (P02747 29-245 limits assumed, chain 3 of 3): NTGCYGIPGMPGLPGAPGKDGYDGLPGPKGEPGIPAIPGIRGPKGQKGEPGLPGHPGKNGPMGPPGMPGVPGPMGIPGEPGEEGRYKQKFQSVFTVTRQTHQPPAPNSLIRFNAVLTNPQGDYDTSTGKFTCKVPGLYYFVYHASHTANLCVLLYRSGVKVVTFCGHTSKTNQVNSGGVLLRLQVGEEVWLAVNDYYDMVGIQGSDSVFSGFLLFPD
Description: As the amount of capture, 200 resonance unit (RU) was aimed. […] The sensor surface was regenerated every cycle, using 3 M MgCl₂ (prepared in-house). The sensorgrams were obtained using BIACORE® T200 evaluation software, version 2.0 (Cytiva). […] For comparison of these sensorgrams, binding response of C1r2s2 was normalized as 100 RU.

[2] = target: T2, recombinant cynomolgus C1r2s2 tetramer (cynomolgus monkey, limits assumed); assay: SPR (Biacore T200), 37 C, pH 7.4; cyC1r2s2 captured by IPN009, antibody as analyte
T2 construct: also called cyC1r2s2; monkey C1r2s2
T2 chain 1: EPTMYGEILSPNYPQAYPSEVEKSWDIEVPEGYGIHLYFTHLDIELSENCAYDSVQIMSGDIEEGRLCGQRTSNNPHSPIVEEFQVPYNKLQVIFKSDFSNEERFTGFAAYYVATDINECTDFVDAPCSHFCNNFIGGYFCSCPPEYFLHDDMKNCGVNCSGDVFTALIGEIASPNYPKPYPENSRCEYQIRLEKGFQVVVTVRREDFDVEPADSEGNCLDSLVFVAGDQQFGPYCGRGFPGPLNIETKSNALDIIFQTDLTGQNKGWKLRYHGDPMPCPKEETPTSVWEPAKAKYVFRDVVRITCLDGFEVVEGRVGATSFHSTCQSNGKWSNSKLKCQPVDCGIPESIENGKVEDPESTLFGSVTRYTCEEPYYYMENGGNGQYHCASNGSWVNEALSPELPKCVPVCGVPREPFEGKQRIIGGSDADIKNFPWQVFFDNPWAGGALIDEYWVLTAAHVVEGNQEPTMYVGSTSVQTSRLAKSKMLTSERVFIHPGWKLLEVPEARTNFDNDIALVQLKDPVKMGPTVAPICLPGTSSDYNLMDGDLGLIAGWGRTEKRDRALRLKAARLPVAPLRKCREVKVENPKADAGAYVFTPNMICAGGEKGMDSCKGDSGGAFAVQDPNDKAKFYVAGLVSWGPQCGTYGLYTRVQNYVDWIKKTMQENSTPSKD
T2 chain 2: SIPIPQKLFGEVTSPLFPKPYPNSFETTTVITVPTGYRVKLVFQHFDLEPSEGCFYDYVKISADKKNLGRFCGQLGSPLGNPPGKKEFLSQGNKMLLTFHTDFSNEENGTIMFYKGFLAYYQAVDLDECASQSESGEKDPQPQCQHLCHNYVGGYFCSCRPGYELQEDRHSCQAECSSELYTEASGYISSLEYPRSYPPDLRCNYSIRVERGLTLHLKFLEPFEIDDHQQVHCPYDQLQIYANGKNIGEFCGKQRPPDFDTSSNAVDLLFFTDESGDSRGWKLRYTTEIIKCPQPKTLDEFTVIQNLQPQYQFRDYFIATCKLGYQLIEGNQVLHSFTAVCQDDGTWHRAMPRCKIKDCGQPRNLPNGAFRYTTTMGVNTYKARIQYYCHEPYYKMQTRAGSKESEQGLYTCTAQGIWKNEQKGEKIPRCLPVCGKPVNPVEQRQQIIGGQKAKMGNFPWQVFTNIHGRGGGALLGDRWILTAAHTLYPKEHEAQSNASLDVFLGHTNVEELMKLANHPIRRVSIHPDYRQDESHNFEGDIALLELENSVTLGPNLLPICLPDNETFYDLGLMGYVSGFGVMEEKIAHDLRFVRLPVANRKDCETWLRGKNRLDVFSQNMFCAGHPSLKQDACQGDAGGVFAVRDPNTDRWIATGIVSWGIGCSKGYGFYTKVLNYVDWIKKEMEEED
Method: (§1) The binding property of each sample at pH7.4 and pH6.0 was determined at 37° C. using BIACORE® T200 instrument (Cytiva). […] 20 mM ACES, 150 mM NaCl, 1.2 mM CaCl₂, 1 mg/mL BSA (not containing IgG), 1 mg/mL CMD, 0.05% Tween® 20, 0.005 w/v % NaN₃, pH7.4 or pH6.0 buffer was used as the running buffer. […] The antibody solution was added thereto at 30 μL/min for 120 seconds, the running buffer was then added at 30 μL/min for 180 seconds, and the dissociation constant (KD) of each antibody for hC1r2s2 and cyC1r2s2 was calculated. […] The sensor surface was regenerated every cycle, using 3 M MgCl2 (prepared in-house). The KD value was calculated using BIACORE® T200 evaluation software version 2.0 (Cytiva). The binding strengths under each pH condition were compared by dividing the KD value at pH6.0 with the KD value at pH7.4.

[3] = target: T2, recombinant cynomolgus C1r2s2 tetramer; assay: SPR (Biacore T200), 37 C, pH 6.0; cyC1r2s2 captured by IPN009, antibody as analyte
Method: as §1

[4] = target: B1; assay: SPR (Biacore T200), 37 C, pH 6.0; hC1r2s2 captured by IPN009, antibody as analyte
Method: as §1

[5] = target: T2, recombinant cynomolgus C1r2s2 tetramer; assay: SPR (Biacore T200), 37 C; ratio of KD at pH 6.0 to KD at pH 7.4
Method: as §1

[6] = target: B1; assay: as above
Method: as §1

[7] = target: B1; assay: SPR (Biacore T200), 37 C, pH 7.4; hC1r2s2 captured by IPN009, antibody as analyte
Method: as §1

| Binder | binding result [1] | Kd [2] [nM] | Kd [3] [nM] | Kd [4] [nM] | KD (pH 6.0)/KD (pH 7.4) [5] | KD (pH 6.0)/KD (pH 7.4) [6] | Kd [7] [nM] |
| --- | --- | --- | --- | --- | --- | --- | --- |
| B1 | binds | – | – | – | – | – | – |
| COS0637pHv23-G1A3FcgSil+LowpI (antibody, V domains shown, VH 28, VL 51, CH 45, CL 23) VH: QVQLVESGGGVVQPGRSLRLSCAASGFTFSAYAMNWIRQPPGKGLEWIGLIYGTGHEFYASWAEERVTISVDTSKNQFSLKLSSVTAADTAVYYCARGRSKNYNSDFHIWGQGTLVTVSS VL: DIQMTQSPSSLSASVGDRVTITCQAHEILHDKKNLAWYQQKPGQPPKLLIYSASILESGVPSRFSGSGSGTDFTLTISSLQPEDFATYYCHGEFSHGSADLNHFGQGTKVEIKR | – | 0.334 | 46.3 | 27.4 | 139 | 110 | 0.249 |
| COS0637pHv25-G1A3FcgSil+LowpI (antibody, V domains shown, VH 32, VL 55, CH 45, CL 23) VH: QVQLVESGGGVVQPGRSLRLSCAASGFTFSAYAMNWIRQPPGKGLEWIGLMYGSGHEFYASWAEERVTISVDTSKNQFSLKLSSVTAADTAVYYCARGRSKNYNSDFHLWGQGTLVTVSS VL: DIQMTQSPSSLSASVGDRVTITCQAHEILHDKKNLAWYQQKPGQPPKLLIYGASQRESGVPSRFSGSGSGTDFTLTISSLQPEDFATYYCHGEFPHSSADLNHFGQGTKVEIKR | – | 0.243 | 67.1 | 21.3 | 276 | 108 | 0.198 |
